Data taken from patent publication US20170158742A1.
“And” between values parts separate entries of the source, which are not always exact repeats. Equal entries are not always repeated.

Columns and labels:
[1] = target: AF4/FMR2 family, member 4 (human) (UniProt Q9UHB7)
[2] = target: Additional sex combs like 1 (Drosophila) (human) (UniProt Q8IXJ9)
Aurora kinase A (human) = Aurora kinase A (human) (UniProt O14965)
[3] = target: CDKN2A interacting protein (human) (UniProt Q9NXV6)
[4] = target: Calcium channel, voltage-dependent, beta 1 subunit (human) (UniProt Q02641)
Calcium channel, voltage-dependent, beta 1 subunit (human), sequence (Q02641 whole entry): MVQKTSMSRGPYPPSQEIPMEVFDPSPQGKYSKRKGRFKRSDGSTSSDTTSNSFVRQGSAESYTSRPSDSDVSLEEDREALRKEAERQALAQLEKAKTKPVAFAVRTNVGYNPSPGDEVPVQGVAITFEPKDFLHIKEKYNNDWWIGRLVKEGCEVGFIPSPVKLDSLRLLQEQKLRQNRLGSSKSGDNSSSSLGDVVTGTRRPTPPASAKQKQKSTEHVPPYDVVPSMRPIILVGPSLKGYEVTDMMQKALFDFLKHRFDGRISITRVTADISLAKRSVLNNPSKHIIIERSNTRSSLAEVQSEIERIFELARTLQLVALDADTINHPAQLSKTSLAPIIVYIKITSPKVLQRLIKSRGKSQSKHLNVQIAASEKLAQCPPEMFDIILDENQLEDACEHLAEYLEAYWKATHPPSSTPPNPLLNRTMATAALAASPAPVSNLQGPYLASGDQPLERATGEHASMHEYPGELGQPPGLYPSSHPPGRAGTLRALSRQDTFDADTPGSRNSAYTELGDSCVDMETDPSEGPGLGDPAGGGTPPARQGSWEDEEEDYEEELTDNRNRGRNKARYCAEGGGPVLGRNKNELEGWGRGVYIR

[5] = target: Calcium/calmodulin-dependent protein kinase II alpha (human) (UniProt Q9UQM7)
[6] = target: Checkpoint suppressor 1/Forkhead box N3 (human) (UniProt O00409)
[7] = target: Choline kinase alpha (human) (UniProt P35790)
Choline kinase alpha (human), sequence (P35790 whole entry): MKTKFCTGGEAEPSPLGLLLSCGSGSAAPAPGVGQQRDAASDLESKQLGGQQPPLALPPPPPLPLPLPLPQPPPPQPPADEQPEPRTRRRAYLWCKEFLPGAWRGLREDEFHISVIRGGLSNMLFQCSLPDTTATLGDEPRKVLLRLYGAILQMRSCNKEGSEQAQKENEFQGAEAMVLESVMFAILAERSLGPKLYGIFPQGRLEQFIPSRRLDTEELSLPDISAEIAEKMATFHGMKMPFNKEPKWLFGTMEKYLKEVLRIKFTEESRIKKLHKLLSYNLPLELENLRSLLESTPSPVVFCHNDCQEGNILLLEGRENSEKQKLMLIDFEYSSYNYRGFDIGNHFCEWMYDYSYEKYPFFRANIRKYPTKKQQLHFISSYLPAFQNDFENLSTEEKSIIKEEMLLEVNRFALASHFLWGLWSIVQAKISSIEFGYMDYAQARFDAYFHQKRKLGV

Cortactin (human) = Cortactin (human) (UniProt Q14247)
Cortactin (human), sequence (Q14247 other isoform, or with tags, fused parts or gaps limits assumed): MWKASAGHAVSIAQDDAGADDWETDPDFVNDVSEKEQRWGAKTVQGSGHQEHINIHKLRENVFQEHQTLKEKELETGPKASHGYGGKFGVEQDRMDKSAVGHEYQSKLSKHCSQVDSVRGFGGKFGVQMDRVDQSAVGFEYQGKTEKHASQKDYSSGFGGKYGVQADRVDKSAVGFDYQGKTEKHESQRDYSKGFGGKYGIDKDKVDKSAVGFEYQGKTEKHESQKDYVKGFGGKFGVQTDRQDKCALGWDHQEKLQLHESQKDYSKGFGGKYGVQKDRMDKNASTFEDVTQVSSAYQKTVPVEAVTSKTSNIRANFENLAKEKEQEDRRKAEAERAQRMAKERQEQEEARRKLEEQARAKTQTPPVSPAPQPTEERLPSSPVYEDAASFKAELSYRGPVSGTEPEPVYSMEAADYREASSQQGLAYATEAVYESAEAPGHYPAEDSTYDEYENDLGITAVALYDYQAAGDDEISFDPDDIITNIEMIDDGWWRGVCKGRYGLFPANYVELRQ

Cyclin B3 (human) = Cyclin B3 (human) (UniProt Q8WWL7)
[8] = target: DIM1 dimethyladenosine transferase 1 homolog (S. cerevisiae) (human) (UniProt Q9UNQ2)
[9] = target: Elongation factor 1 homolog (ELF1, S. cerevisiae) (human) (UniProt P60002)
[10] = target: Eukaryotic translation initiation factor 1 A, Y-linked (human) (UniProt O14602)
Eukaryotic translation initiation factor 1 A, Y-linked (human), sequence (O14602 whole entry): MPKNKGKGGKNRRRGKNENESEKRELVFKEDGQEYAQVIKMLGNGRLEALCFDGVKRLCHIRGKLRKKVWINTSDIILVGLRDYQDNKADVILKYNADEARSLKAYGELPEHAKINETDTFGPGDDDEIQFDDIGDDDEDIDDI

[11] = target: Immunoglobulin (CD79A) binding protein 1 (human) (UniProt P78318)
[12] = target: Microtubule-associated protein 2 (human) (UniProt P11137)
[13] = target: NIMA (never in mitosis gene a)-related kinase 7 (human) (UniProt Q8TDX7)
NIMA (never in mitosis gene a)-related kinase 7 (human), sequence (Q8TDX7 whole entry): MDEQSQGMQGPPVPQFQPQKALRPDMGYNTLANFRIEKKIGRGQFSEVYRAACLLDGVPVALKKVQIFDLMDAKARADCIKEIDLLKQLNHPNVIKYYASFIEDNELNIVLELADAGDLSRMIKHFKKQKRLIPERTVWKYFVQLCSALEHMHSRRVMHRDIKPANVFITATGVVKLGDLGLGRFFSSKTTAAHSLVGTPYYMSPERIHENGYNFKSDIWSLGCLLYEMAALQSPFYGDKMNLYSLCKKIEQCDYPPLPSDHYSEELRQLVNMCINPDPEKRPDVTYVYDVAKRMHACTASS

[14] = target: Nuclear speckle splicing regulatory protein 1 (human) (UniProt Q9H0G5)
[15] = target: Piccolo (presynaptic cytomatrix protein) (human) (UniProt Q9Y6V0)
Piccolo (presynaptic cytomatrix protein) (human), sequence (Q9Y6V0 other isoform, or with tags, fused parts or gaps limits assumed): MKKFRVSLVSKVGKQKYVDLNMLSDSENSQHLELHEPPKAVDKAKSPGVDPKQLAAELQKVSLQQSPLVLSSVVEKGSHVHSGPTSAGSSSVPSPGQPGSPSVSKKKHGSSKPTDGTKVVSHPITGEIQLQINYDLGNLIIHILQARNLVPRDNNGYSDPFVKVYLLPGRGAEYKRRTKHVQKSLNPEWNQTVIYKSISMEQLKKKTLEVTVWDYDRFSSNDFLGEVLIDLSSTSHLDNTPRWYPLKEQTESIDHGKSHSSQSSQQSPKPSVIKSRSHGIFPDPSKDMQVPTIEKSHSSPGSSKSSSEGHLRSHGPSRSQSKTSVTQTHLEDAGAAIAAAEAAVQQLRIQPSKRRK

[16] = target: Potassium channel tetramerisation domain containing 18 (human) (UniProt Q6PI47)
[17] = target: Protein kinase C, iota (human) (UniProt P41743)
Protein kinase C, iota (human), sequence (P41743 10-596 limits assumed): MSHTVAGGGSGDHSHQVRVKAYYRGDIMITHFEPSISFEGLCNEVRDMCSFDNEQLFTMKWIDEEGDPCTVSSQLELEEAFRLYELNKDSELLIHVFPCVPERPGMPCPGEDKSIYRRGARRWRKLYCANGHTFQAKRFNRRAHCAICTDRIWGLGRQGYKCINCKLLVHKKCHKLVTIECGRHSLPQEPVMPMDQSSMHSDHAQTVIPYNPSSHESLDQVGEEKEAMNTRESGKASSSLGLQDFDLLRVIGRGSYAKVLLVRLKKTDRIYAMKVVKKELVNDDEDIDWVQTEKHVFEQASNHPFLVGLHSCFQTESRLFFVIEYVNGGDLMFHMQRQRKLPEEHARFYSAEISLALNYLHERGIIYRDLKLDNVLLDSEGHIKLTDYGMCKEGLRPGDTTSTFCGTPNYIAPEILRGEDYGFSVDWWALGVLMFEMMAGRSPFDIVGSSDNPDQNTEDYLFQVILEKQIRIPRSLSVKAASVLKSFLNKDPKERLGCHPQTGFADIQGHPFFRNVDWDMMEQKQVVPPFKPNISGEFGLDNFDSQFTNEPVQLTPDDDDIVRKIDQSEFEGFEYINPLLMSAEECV

[18] = target: RAD51 associated protein 1 (human) (UniProt Q96B01)
[19] = target: Rtf1, Paf1/RNA polymerase II complex component, homolog (S. cerevisiae) (human) (UniProt Q92541)
[20] = target: SLAIN motif family, member 2 (human) (UniProt Q9P270)
[21] = target: Signal recognition particle 19kDa (human) (UniProt P09132)
Signal recognition particle 19kDa (human), sequence (P09132 whole entry): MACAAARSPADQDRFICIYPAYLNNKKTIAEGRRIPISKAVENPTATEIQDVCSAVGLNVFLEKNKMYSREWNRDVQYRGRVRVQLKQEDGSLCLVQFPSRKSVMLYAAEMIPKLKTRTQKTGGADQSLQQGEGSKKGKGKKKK

[22] = target: Ubiquitin-conjugating enzyme E2S (human) (UniProt Q16763)
Ubiquitin-conjugating enzyme E2S (human), sequence (Q16763 whole entry): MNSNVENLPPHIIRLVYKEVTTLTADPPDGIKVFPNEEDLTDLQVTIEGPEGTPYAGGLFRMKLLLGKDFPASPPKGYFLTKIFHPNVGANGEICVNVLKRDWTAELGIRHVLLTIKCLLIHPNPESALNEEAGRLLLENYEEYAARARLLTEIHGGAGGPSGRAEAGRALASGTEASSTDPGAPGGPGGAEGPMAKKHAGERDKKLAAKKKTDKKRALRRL

[23] = target: Vaccinia related kinase 1 (human) (UniProt Q99986)
Vaccinia related kinase 1 (human), sequence (Q99986 whole entry): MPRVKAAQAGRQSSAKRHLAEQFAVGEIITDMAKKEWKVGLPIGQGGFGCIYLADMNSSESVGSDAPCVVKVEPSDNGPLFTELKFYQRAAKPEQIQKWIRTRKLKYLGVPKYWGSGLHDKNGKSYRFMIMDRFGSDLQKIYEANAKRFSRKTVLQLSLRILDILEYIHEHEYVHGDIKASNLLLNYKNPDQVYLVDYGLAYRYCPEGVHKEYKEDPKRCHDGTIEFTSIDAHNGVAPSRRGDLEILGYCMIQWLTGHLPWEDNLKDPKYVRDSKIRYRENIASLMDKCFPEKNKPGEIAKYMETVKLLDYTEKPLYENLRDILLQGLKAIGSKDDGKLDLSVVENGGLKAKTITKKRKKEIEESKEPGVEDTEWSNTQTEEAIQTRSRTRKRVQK

[24] = target: WAS/WASL interacting protein family, member 1 (human) (UniProt O43516)
[25] = target: WD repeat domain 5 (human) (UniProt P61964)
[26] = target: p 53-regulated DDA3 (DDA3)/proline/serine-rich coiled-coil 1 (human) (UniProt Q6PGN9)
[27] = target: Eukaryotic translation initiation factor 1 A, X-linked (human) (UniProt P47813)
Eukaryotic translation initiation factor 1 A, X-linked (human), sequence (P47813 whole entry): as the sequence (O14602 whole entry) above, with L50M counted along it

Aurora kinase A (human), sequence (O14965 whole entry): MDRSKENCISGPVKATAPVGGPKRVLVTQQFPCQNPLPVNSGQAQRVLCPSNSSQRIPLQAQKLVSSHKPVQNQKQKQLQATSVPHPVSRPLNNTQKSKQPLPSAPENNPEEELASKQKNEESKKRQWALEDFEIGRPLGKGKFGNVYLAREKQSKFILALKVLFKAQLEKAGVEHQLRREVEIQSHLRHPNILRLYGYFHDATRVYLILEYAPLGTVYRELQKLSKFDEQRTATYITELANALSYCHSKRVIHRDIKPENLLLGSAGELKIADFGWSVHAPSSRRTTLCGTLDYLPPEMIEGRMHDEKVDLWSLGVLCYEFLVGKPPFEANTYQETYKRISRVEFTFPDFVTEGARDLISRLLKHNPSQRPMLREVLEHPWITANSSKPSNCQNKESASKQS
CDKN2A interacting protein (human), sequence (Q9NXV6 whole entry): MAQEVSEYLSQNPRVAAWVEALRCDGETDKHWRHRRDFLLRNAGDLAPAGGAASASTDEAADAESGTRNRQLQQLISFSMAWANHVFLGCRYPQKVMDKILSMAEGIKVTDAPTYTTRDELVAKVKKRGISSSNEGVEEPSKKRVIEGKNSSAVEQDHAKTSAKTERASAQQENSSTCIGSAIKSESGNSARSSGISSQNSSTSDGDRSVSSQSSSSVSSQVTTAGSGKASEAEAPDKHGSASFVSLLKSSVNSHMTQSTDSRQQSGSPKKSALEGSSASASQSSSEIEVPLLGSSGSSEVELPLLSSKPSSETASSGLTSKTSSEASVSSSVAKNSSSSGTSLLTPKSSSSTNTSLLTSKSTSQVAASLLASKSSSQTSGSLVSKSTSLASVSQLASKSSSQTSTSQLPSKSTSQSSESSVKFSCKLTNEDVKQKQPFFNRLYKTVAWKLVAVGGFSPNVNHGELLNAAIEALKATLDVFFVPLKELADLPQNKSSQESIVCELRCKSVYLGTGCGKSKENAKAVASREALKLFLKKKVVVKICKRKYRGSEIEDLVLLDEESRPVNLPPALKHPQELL

“biotinylated full-length Dengue virus capsid (DENV C) protein” was tested, and the Signal Intensity [1] was 1250, the Z-score [1] was 5.02 and the Signal Intensity [2] was 1070. It also gave a Z-score [2] of 4.19, a Signal Intensity (Aurora kinase A (human)) of 1160 and a Z-score (Aurora kinase A (human)) of 4.59. It also gave a Signal Intensity [3] of 1030, a Z-score [3] of 4.01 and a Signal Intensity [4] of 1020. It also gave a Z-score [4] of 3.94, a Signal Intensity [5] of 969 and a Z-score [5] of 3.72. It also gave a Signal Intensity [6] of 918, a Z-score [6] of 3.48 and a Signal Intensity [7] of 1740. For the same substance, the Z-score [7] was 7.26, the Signal Intensity (Cortactin (human)) was 3080 and the Z-score (Cortactin (human)) was 13.4. The Signal Intensity (Cyclin B3 (human)) was 854, the Z-score (Cyclin B3 (human)) was 3.19 and the Signal Intensity [8] was 1670. The Z-score [8] was 6.93, the Signal Intensity [9] was 816 and the Z-score [9] was 3.02. It also gave a Signal Intensity [10] of 852, a Z-score [10] of 3.18 and a Signal Intensity [11] of 1940. The Z-score [11] was 8.18, the Signal Intensity [12] was 875 and the Z-score [12] was 3.29. For the same substance, the Signal Intensity [13] was 918, the Z-score [13] was 3.49 and the Signal Intensity [14] was 928. It also gave a Z-score [14] of 3.53, a Signal Intensity [15] of 929 and a Z-score [15] of 3.53. It also gave a Signal Intensity [16] of 856, a Z-score [16] of 3.2 and a Signal Intensity [17] of 841. For the same substance, the Z-score [17] was 3.13, the Signal Intensity [18] was 1140 and the Z-score [18] was 4.52. It also gave a Signal Intensity [19] of 882, a Z-score [19] of 3.32 and a Signal Intensity [20] of 2570. For the same substance, the Z-score [20] was 11.1, the Signal Intensity [21] was 972 and 818 and the Z-score [21] was 3.73 and 3.02. For the same substance, the Signal Intensity [22] was 1350, the Z-score [22] was 5.49 and the Signal Intensity [23] was 845. The Z-score [23] was 3.15, the Signal Intensity [24] was 1160 and the Z-score [24] was 4.59. For the same substance, the Signal Intensity [25] was 840, the Z-score [25] was 3.13 and the Signal Intensity [26] was 822. The Z-score [26] was 3.04.

“biotinylated full-length Dengue virus capsid (DENV C) protein (other; other documents disagree on this pair)” showed a Signal Intensity [27] of 997 and a Z-score [27] of 3.85.
